Measured values from article doi:10.1101/701797 (bioRxiv, 2019).
Several values for one entry are separate records, joined by “and”; a condition that tells them apart may be missing. Equal entries are not always repeated.

What was measured:
[1] = target: the molecule itself; experiment: SDS-PAGE oligomerization assay with immunoblot
[2] = target: the molecule itself; experiment: SDS-PAGE oligomerization assay
[3] = target: the molecule itself; experiment: SDS-PAGE oligomerization assay; remark: listed apart in the source

| Protein | stoichiometry N [1] | stoichiometry N [2] | stoichiometry N [3] |
| --- | --- | --- | --- |
| wild-type phospholamban (natural protein, dog, UniProt P61012 1-52, looked up) MDKVQYLTRSAIRRASTIEMPQQARQNLQNLFINFCLILICLLLICIIVMLL | 2 and 4 and ~6 | 5 | > 6 |
| I48A mutant of C41L-PLB (natural protein, dog, UniProt P61012 1-52, looked up) MDKVQYLTRSAIRRASTIEMPQQARQNLQNLFINFCLILILLLLICIAVMLL | 5 | – | – |
| C41L-PLB (natural protein, dog, UniProt P61012 1-52, looked up) MDKVQYLTRSAIRRASTIEMPQQARQNLQNLFINFCLILILLLLICIIVMLL | 4 | – | – |
| L39A mutant of C41L-PLB (natural protein, dog, UniProt P61012 1-52, looked up) MDKVQYLTRSAIRRASTIEMPQQARQNLQNLFINFCLIAILLLLICIIVMLL | 4 | – | – |
| I38A mutant of C41L-PLB (natural protein, dog, UniProt P61012 1-52, looked up) MDKVQYLTRSAIRRASTIEMPQQARQNLQNLFINFCLALILLLLICIIVMLL | 4 | – | – |
| L42A mutant of C41L-PLB (natural protein, dog, UniProt P61012 1-52, looked up) MDKVQYLTRSAIRRASTIEMPQQARQNLQNLFINFCLILILALLICIIVMLL | 4 | – | – |
